Assay: yeast display, Sf9 membrane polyspecificity reagent, FACS + sequencing; frameworks hold sequencing errors
Outline: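 After 36–48 hours of galactose induction, yeast (Saccharomyces cerevisiae BJ5465) displaying a synthetic nanobody library were stained at 4 °C for 1 hour with 10% biotinylated, detergent-solubilized Sf9 membrane reagent. Streptavidin microbeads enriched the stained cells before FACS sorting into low and high (top ~1%) gates on anti-HA and streptavidin fluorescence. Each clone's polyreactivity label reflects its gate of origin.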

Q: For “QVQLVETGGGLVQAGGSLRLSCAATEFIFRNYDMGWYRQAPGKERELVASISRGTSTNYADSVKGRFTISRDNAKNTVYLQKNSLKPEDTAVYYCNKRFYYHPFDYWGQGSQVTVSS”, which “polyreactivity (PSR sort gate)” value is on record?
A: The value was “high polyreactivity”.

Q: For “QVQLVESGRGLVQAGGSLRLSCAASGSIFYDNAMGWYRQAPGKDRELVAAISYSGDSTYYADSVKGRFTISHDNAKNTVYLQMNSLKPEDTAVYYCAADYYGIYYSGTSEYWGQGTQVTVSS”, which “polyreactivity (PSR sort gate)” value is on record?
A: The value was “low polyreactivity”.

Q: With “QVQLVESWGGLVQAGGSLRLSCAASGRTFSRYAMGWYRQAPRKERELVAAISSRGGSTYYADSVKGRFTISRDFANNTVYLQMNSLYPEDTAVYYCNADSKVDPYGYDYWGQGTQVTVSS” as the sequence, how does the “polyreactivity (PSR sort gate)” value read?
A: The value was “high polyreactivity”.

Q: With “QVQLVESGGGLVQAGGSLRLSCAASGLIFRHYTMGWYRQAPGKERELVAAISRSGGSTRYADSVKGRFTISRDNAKNTVYLQMNSLKPEDTAVYYCAASSVKSTWTLDYWGQGTQVTVSS” as the sequence, how does the “polyreactivity (PSR sort gate)” value read?
A: Its value is “high polyreactivity”.

Q: Which “polyreactivity (PSR sort gate)” value does the source give for “QVQLVESGGGLVQAGGSLRLSCAASGRIFNVYAMGWYRQAPGKERELVAAIRRRGDRTYYADSVKGRFTISRDNAKNTVYLQMNSLKPEDTAVYYCAKSQSAKGGYDYWGQGTQVTVSS” here?
A: Its value is “high polyreactivity”.

Q: For “QVQLVESGGGLVQAGGSLRLSCAASGGTYELYVMGWYRQAPGKERELVAAISVNGDDTYYADSVKGRITISRDNAKNTVYLQMNSLKPEDTAVYYCAAEVLGSYYLTGYDYWGQGTQVTVSS”, which “polyreactivity (PSR sort gate)” value is on record?
A: Its value is “high polyreactivity”.

Q: Which “polyreactivity (PSR sort gate)” value does the source give for “QVQLVESGGGLVQAGGSLRLSCAASGRIFYRNAMGWYRQAPGKERELVAAISKSGGSTYYADSVKGRFTISRDNAKNTVYLQMNSLKPEDTAVYYCNARPGQSGARFGYWGQGTQVTVSS” here?
A: Its value is “high polyreactivity”.

Q: With “QVQLVESGGGLVQAGGSLRLSCAASGSIFDSKAMGWFRQGPGKERELVAAINRSDASTYYADSVKGRFTISRDNAKNTVYLQMNSLKPEDTAVYYCAVEVYVYNVDIYDYWGQGTQVTVSS” as the sequence, how does the “polyreactivity (PSR sort gate)” value read?
A: Its value is “low polyreactivity”.

Q: Which “polyreactivity (PSR sort gate)” value does the source give for “QVQLVESGGGLVQAGGSLRLSCAASGRTFRVYAMGWYRQAPGKERELVAAISGRGGSTYYADSVKGRFSISRDNAKNTVYFQMNSLKPEVTAVYYCAKSNPYLRLCEGNYWGQGTQVTVSS” here?
A: Its value is “high polyreactivity”.

Q: Which “polyreactivity (PSR sort gate)” value does the source give for “QVQLVESGGGLVQAGGSLRLSCAASGSTFGSYAMGWYRQAPGKERELVAGISWSGGRTYYADSVKGRFTISRDNAKNTVYLQMNSLKPEDTAVFYCALDTGYYYARYNFWGQGTKVTVSS” here?
A: The value was “low polyreactivity”.

Q: With “QVQLVESGGGLVQAGGSLRLSCAASGSIFTFYAMGWYIQAPGKERELVAAISSGGDTYYADSVKGRFTISRDNAKNTVYLQKNILKPEDTAVYYCAADWRGSYLYGYYYWGQGTQVTVSS” as the sequence, how does the “polyreactivity (PSR sort gate)” value read?
A: Its value is “low polyreactivity”.

Q: For “QVQLLESGGGLDKAGVRIRLSCASSGIIFAWYAMVWYRQAHRKEMELVAAISWSCGSTYYAYSVKLRFTISRDNAKNTVDLQMNSLTPEDTAVYYCATYPRRQGKYAYWGQGTQVTVSS”, which “polyreactivity (PSR sort gate)” value is on record?
A: The value was “high polyreactivity”.

Q: Which “polyreactivity (PSR sort gate)” value does the source give for “QVQLVESGGCLVQAGGSLRLSCAASGSTLGYYAMGWYRQAPGKERELVASIRWDTASTYYADSVKGRFTISRDNAKNTVYLQMNSLKPEDTAVYYCNAGRPRFYRSRWYYYGYGYWGQGTQVTVSS” here?
A: The value was “high polyreactivity”.

Q: For “QVQLVESGGGLVQAGGSLRLSCAASGSIYPNGLGWYRQAPGKERELVATITSGGSTYYADSVKGRFTISRDNAKNTVYLPMHSQKPEDTAVYYCAATVYGGYSGSGSNYWGQGTQVTVSS”, which “polyreactivity (PSR sort gate)” value is on record?
A: The value was “low polyreactivity”.

Q: With “QVQLVESGGGLVQAGGSLSLSCAATGSTFSLYAMGWYIQAPGKERELVAAISSSGGSTYYADSVKGRFTISRDNAKNTVYLQMNSLKPEDTAVYYCAAYRVGSYDYWGQGTQVTVSS” as the sequence, how does the “polyreactivity (PSR sort gate)” value read?
A: The value was “high polyreactivity”.

Q: For “QVQLVDSGGGLVQAGASLRLSCAASGRIITAYYAMGWYRQAPGKERELVASISSSGTSTYADSVKGRFTISRDYAKNTVYLQMKSLKPEDTAVYYCATRKQRTRRYDYGYWGQGTQVTVSS”, which “polyreactivity (PSR sort gate)” value is on record?
A: The value was “low polyreactivity”.

Q: Which “polyreactivity (PSR sort gate)” value does the source give for “QVQLVESGGGVVQAGGSLRLSCAASGSTFSYNAMGWYRQAPGKERELVAAITSTGRTYYADSVKGRFTISRDNAKNTVYLQMNSLKPEDTAVYYCNKRARSEQYSYNYGYYYWGQGTQVTVSS” here?
A: Its value is “high polyreactivity”.

Q: With “QVQLVESGGGLVQAGGSLRLSFSASGRTFPFYAMGWYRQEPGKERDLVAAITVSGGSTYYADSVKGRFTISRDNAKNTVYLQMNSLKPVDTAVYYCNAKRSDQSSKTFNYWGQGTQVTVSS” as the sequence, how does the “polyreactivity (PSR sort gate)” value read?
A: The value was “low polyreactivity”.

Q: Which “polyreactivity (PSR sort gate)” value does the source give for “QVQLVESGGGLVQAGGSLRLSCASSGSIFEANDMGWYRQAPGKEREFVADIDANSGSTYYADSVKGRFTISRDNAKNTVNLQMNSLKPEDTADYYCNAQVYLHTAYDYWGQVTQVTVSS” here?
A: Its value is “low polyreactivity”.

Q: Which “polyreactivity (PSR sort gate)” value does the source give for “QVQLVESGGGLVQAGGSLRLSCAASRFTFVHYAMGWYRQAPGKERELVAAISRSGGSTYCADSVKGRFTISRDNAKNTVYLQMNSLKPEDTAVYYCAASRGSYEVVYWGQGTQVTVSS” here?
A: The value was “high polyreactivity”.

Q: Which “polyreactivity (PSR sort gate)” value does the source give for “QVQLVESGGGLVQAGGSLRLSCAASGNTFAYNVMGWYRQAPGKERELVAAISRSGGSTYYADSVKGRFTISRDNAKNTVYLQMNSLKPEDTAVYYCAAVVRRVRPEGSYNRWGHDYWGQGTQVTVSS” here?
A: Its value is “high polyreactivity”.

Q: With “QVQLVESGGGLVQAGGSLRLSCAASGLTFPPYAMGWYRQAPGKERELVAAISWNGGNTYYADSVKGRFTISRDNAKNTVYLQMNSLKPEDTAVYYCAAKRGTQGMYYWGQGTQVTVSS” as the sequence, how does the “polyreactivity (PSR sort gate)” value read?
A: The value was “high polyreactivity”.

Q: Which “polyreactivity (PSR sort gate)” value does the source give for “QVQLVESGGGLVQAGGSLRLSCAASGSTFYYNAMRWYRQAPGKERELVAAITGSGDSTYYADSVKGRFTISRDNAKNTVYLQMNSLKPEDTAVYYCAADTYSTYWGQGTQVTVSS” here?
A: Its value is “low polyreactivity”.

Q: With “QVQLVESGGGLVQAGGSLRLSCAASGLIYTPYAMGWYRQAPGKERELVAAINYGGSRTYYADSVKGRFTISRDNAKNTVYLQMNSLKPEDTAVYYCNKPGNYVWRRSWDFDYWGQGTQVTVSS” as the sequence, how does the “polyreactivity (PSR sort gate)” value read?
A: The value was “high polyreactivity”.

Q: For “QVQLVESGGGLVQAGGSLRLSCAASGRIIGYNAMGWYRQAPGKERELVAAIDYTGGSTYYADSVKGRFTISLDNAKNTVYLQMNSLKPEDTAVYYCAKDRTTPWEEDDYWGQGTQVTVSS”, which “polyreactivity (PSR sort gate)” value is on record?
A: The value was “low polyreactivity”.

Q: With “QVQLVESGGGLVQAGGSLRLSCAASGRIFSTYVMGWYRQAPGKERELVAAIRNRGGSTYYADSVKGRFTISRDNAKNTVYLQMNSLKPEDTAVFYCAAEYSYRYRVSMDYWGQGTQVTVSS” as the sequence, how does the “polyreactivity (PSR sort gate)” value read?
A: Its value is “high polyreactivity”.

Q: Which “polyreactivity (PSR sort gate)” value does the source give for “QVQLVESGGGLVQAGGSHRLSCAASGRIFVIYAMGWNRQAPGKERELVALITRGSSTYADSVKGRFTISRDNAKNTVYLQMYSLKPEDTAVYYCAARRYVTVDYDYWGQGTQVTVSS” here?
A: The value was “high polyreactivity”.

Q: For “QVQLVESGGGLVQAGGSLRLSCAASGRTFSAYAMGWYRQAPGKERELVAAISRRGGSTYYADSVKGRFTISRDNAKNTVYLQMNSLKPEDTAVYYCAADVYKQYGYYYWGQGTQVTVSS”, which “polyreactivity (PSR sort gate)” value is on record?
A: The value was “high polyreactivity”.

Q: Which “polyreactivity (PSR sort gate)” value does the source give for “QVQLVESGGGLVQAGGSLRLSCAASGITFSYAMGWYRQAPGKERELVAGITTSGGSTYADSVKGRFTISRDNAKNTVYLQMNSLKPEDTAVYYCAADRSAVQFSAFLEYDYWGQGTQVTVSS” here?
A: The value was “low polyreactivity”.

Q: Which “polyreactivity (PSR sort gate)” value does the source give for “QVQLVESGGGLVQAGGSLRLSCAASGSTFVDYAMGWYRQAPGKERELVAGITSGGSTNYADSVKGRFTISRDNAKNTVYLQMNSLKPEDTAVYYCNADPGQDTPGGISDEWYSVWLEYDYWGQGTQVTVSS” here?
A: Its value is “low polyreactivity”.

Q: For “QVQLVESGGGLVQAGGSLRLSCAASGFTFWAYAMGWYRQAPGKERELVAPISWSGGITYYADSVKGRFTISRDNAKNTVYLQMNSLKPEDTAVYYCAADPYVLVWVEDYDYWVQGTQVTVSS”, which “polyreactivity (PSR sort gate)” value is on record?
A: Its value is “high polyreactivity”.

Q: Which “polyreactivity (PSR sort gate)” value does the source give for “QVQLVESVGGLVQAGGSLRLSCAPSGSTFYGYAMGWYRQAPGKESELVAAITWGGASTYYADSVKGRFTISRDNAKNTVYLQMNSLKPEDTAVYYCATVGWGYQPYPFGMDYWGQGTQVTVSS” here?
A: The value was “low polyreactivity”.
